From US20190071490A1 (BETH ISRAEL DEACONESS MEDICAL CENTER, published 2019)
Where a chain is given by its changes, count along the chain named. Ends that are not written are not given here.

Columns and labels:
[1] = target: T1, human α-CGRP 1-37 (WT) (human, C-terminal amide; N-terminal biotin when captured on the SA chip; 125I-labelled in the radioligand assay); test: Biacore, 37°C, Fab over CGRP on SA chip
T1 construct: also called α-human
T1 peptide: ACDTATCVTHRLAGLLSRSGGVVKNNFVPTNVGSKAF
Outline: (§1)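 Fab analyte flowed over N-biotinylated CGRP captured at low density on a streptavidin chip in HBS-EP (pH 7.4), 1-min injections at 100 μL/min, at least 10 min dissociation.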

[2] = target: T2, rat α-CGRP (1-37) (rat, C-terminal amide; N-terminal biotin when captured on the SA chip); test: Biacore, 37°C, Fab over CGRP on SA chip
T2 construct: also called rat α (1-37); α-rat
T2 peptide: T1 peptide with A1S, D3N, N25D, K35E
Outline: as §1

[3] = target: T1, human α-CGRP 1-37 (WT); test: Biacore, 37°C, high-resolution two-part experiment
Procedure: (§2) Biacore assay for affinity determination. […] All Biacore assays were conducted in HBS-EP running buffer (10 mM HEPES pH 7.4, 150 mM NaCl, 3 mM EDTA, 0.005% v/v polysorbate P20). CGRP surfaces were prepared by diluting the N-biotinylated CGRP to a concentration of less than 0.001 mg/mL into HBS-EP buffer and injecting it across the SA sensor chip using variable contact times. […] Samples were typically injected for 1 minute at 100 μL/min and dissociation times of at least 10 minutes were allowed. […] An entire titration series (typically generated in duplicate) was fit globally to a 1:1 Langmuir binding model using the BIAevaluation program. This returned a unique pair of association and dissociation kinetic rate constants (respectively, kₒₙ and koff) for each binding interaction, whose ratio gave the equilibrium dissociation constant (KD=koff/kₒₙ).
(§3) High-resolution analysis of binding interactions with extremely slow off rates. […] The protocol described above was used with the following modifications.

[4] = target: T3, human α-CGRP K35A (19-37) (human, also: N-terminal biotin when on the chip); test: Biacore, 37°C, G1 Fab titrated over N-biotinylated peptide on chip
T3 construct: the entry already carries K35A
T3 peptide: SGGVVKNNFVPTNVGSAAF-NH2
Procedure: (§4) All Biacore assays were conducted in HBS-EP running buffer (10 mM HEPES pH 7.4, 150 mM NaCl, 3 mM EDTA, 0.005% v/v polysorbate P20). CGRP surfaces were prepared by diluting the N-biotinylated CGRP to a concentration of less than 0.001 mg/mL into HBS-EP buffer and injecting it across the SA sensor chip using variable contact times. […] Samples were typically injected for 1 minute at 100 μL/min and dissociation times of at least 10 minutes were allowed. […] An entire titration series (typically generated in duplicate) was fit globally to a 1:1 Langmuir binding model using the BIAevaluation program. This returned a unique pair of association and dissociation kinetic rate constants (respectively, kₒₙ and koff) for each binding interaction, whose ratio gave the equilibrium dissociation constant (KD=koff/kₒₙ).

[5] = target: T4, human α-CGRP K35E (19-37) (human, also: N-terminal biotin when on the chip); test: as above
T4 construct: the entry already carries K35E
T4 peptide: SGGVVKNNFVPTNVGSEAF-NH2
Procedure: as §4

[6] = target: T5, human α-CGRP K35M (19-37) (human, also: N-terminal biotin when on the chip); test: as above
T5 construct: the entry already carries K35M
T5 peptide: SGGVVKNNFVPTNVGSMAF-NH2
Procedure: as §4

[7] = target: T6, human α-CGRP 25-38A (human, not fully specified); test: as above
T6 construct: residues 25-37 with an extra alanine added at the C-terminus (in the entry); also called 38A (25-38A)
T6 peptide: NNFVPTNVGSKAFA-NH2
Procedure: as §4

[8] = target: T7, human α-CGRP V28A (25-37) (human, not fully specified); test: as above
T7 construct: the entry already carries V28A
T7 peptide: NNFAPTNVGSKAF-NH2
Procedure: as §4

[9] = target: T8, human α-CGRP N31A (25-37) (human, not fully specified); test: as above
T8 construct: the entry already carries N31A
T8 peptide: NNFVPTAVGSKAF-NH2
Procedure: as §4

[10] = target: T9, human α-CGRP G33A (25-37) (human, not fully specified); test: as above
T9 construct: the entry already carries G33A
T9 peptide: NNFVPTNVASKAF-NH2
Procedure: as §4

[11] = target: T10, human β-CGRP (1-37) (human, C-terminal amide; N-terminal biotin when captured on the SA chip); test: Biacore, 37°C, Fab over N-biotinylated CGRP on SA chip, 20-min dissociation
T10 construct: also called human β (1-37)
T10 peptide: T1 peptide with D3N, V22M, N25S
Procedure: as §2

[12] = target: T11, rat β-CGRP (1-37) (rat, C-terminal amide; N-terminal biotin when captured on the SA chip); test: as above
T11 construct: also called rat β (1-37)
T11 peptide: T1 peptide with A1S, D3N, N25D
Procedure: as §2

[13] = target: T1, human α-CGRP 1-37 (WT); test: Biacore, 25°C, Fab over N-biotinylated CGRP on SA chip, high-resolution two-part experiment
Procedure: as §2, §3

[14] = target: T2, rat α-CGRP (1-37); test: as above
Procedure: as §2, §3

Kd [1]: 63 pM | Kd [2]: 2570 pM | Kd [3]: 60 pM | Kd [4]: 1330 pM | Kd [5]: 9730 pM | Kd [6]: 510 pM | binding result [7]: no binding | Kd [8]: 280 pM | Kd [9]: 530 pM | Kd [10]: 141000 pM | Kd [11]: 155 pM | Kd [12]: 152 pM | Kd [13]: 42 pM | Kd [14]: 1220 pM
B1: antibody G1 Fab fragment (Fab, V domains shown)
VH: EVQLVESGGGLVQPGGSLRLSCAASGFTFSNYWISWVRQAPGKGLEWVAEIRSESDASATHYAEAVKGRFTISRDNAKNSLYLQMNSLRAEDTAVYYCLAYFDYGLAIQNYWGQGTLVTVSS
VL: EIVLTQSPATLSLSPGERATLSCKASKRVTTYVSWYQQKPGQAPRLLIYGASNRYLGIPARFSGSGSGTDFTLTISSLEPEDFAVYYCSQSYNYPYTFGQGTKLEIK
